{"source": "ChEMBL document CHEMBL3352481", "about": "“Synthesis of {[5-(adenin-9-yl)-2-furyl]methoxy}methyl phosphonic acid and evaluations against human adenylate kinases” (Bioorg Med Chem Lett, 2014)", "settings_in_all_cases": "Homo sapiens", "key": {"[1]": {"system": "Nc1ncnc2c1ncn2CCOCP(=O)(O)O", "test": "(§1) Activity of recombinant AK2 (unknown origin) assessed as ADP formation by spectroscopic pyruvate kinase/lactate dehydrogenase coupled assay; call rule not given here"}, "[2]": {"system": "Nc1ncnc2c1ncn2[C@H]1C[C@H](O)[C@@H](COP(=O)(O)O)O1", "test": "as §1"}, "[3]": {"system": "Nc1ncnc2c1ncn2-c1ccc(CO)o1", "test": "as §1"}, "[4]": {"system": "Nc1ncnc2c1ncn2-c1ccc(COCP(=O)(O)O)o1", "test": "as §1"}, "[5]": {"system": "Nc1ncnc2c1ncn2[C@@H]1O[C@H](COP(=O)(O)O)[C@@H](O)[C@H]1O", "test": "as §1"}, "[6]": {"system": "C[C@H](Cn1cnc2c(N)ncnc21)OCP(=O)(O)O", "test": "as §1"}, "[7]": {"system": "Nc1ncnc2c1ncn2CCOCP(=O)(O)O", "test": "(§2) Ratio of Kcat to Km for recombinant AK2 (unknown origin)"}, "[8]": {"system": "Nc1ncnc2c1ncn2[C@H]1C[C@H](O)[C@@H](COP(=O)(O)O)O1", "test": "as §2"}, "[9]": {"system": "Nc1ncnc2c1ncn2-c1ccc(CO)o1", "test": "as §2"}, "[10]": {"system": "Nc1ncnc2c1ncn2-c1ccc(COCP(=O)(O)O)o1", "test": "as §2"}, "[11]": {"system": "Nc1ncnc2c1ncn2[C@@H]1O[C@H](COP(=O)(O)O)[C@@H](O)[C@H]1O", "test": "as §2"}, "[12]": {"system": "C[C@H](Cn1cnc2c(N)ncnc21)OCP(=O)(O)O", "test": "as §2"}}}
{"substance": "Adenylate kinase 2, mitochondrial (Homo sapiens) (from UniProt P54819)", "values": [{"measurement": "Km", "setting": "[1]", "value": 6000, "unit": "µM"}, {"measurement": "kcat", "setting": "[1]", "value": 1.5, "unit": "s⁻¹"}, {"measurement": "Km", "setting": "[2]", "value": 210, "unit": "µM"}, {"measurement": "kcat", "setting": "[2]", "value": 110, "unit": "s⁻¹"}, {"measurement": "Km", "setting": "[3]", "value": "Not Active"}, {"measurement": "kcat", "setting": "[3]", "value": "Not Active"}, {"measurement": "Km", "setting": "[4]", "value": 420, "unit": "µM"}, {"measurement": "kcat", "setting": "[4]", "value": 1.06, "unit": "s⁻¹"}, {"measurement": "Km", "setting": "[5]", "value": 380, "unit": "µM"}, {"measurement": "kcat", "setting": "[5]", "value": 80, "unit": "s⁻¹"}, {"measurement": "Km", "setting": "[6]", "value": 3000, "unit": "µM"}, {"measurement": "kcat", "setting": "[6]", "value": 2.4, "unit": "s⁻¹"}, {"measurement": "kcat/Km", "setting": "[7]", "value": 250, "unit": "×10⁶ /M/s"}, {"measurement": "kcat/Km", "setting": "[8]", "value": 0.5, "unit": "×10⁶ /M/s"}, {"measurement": "kcat/Km", "setting": "[9]", "value": "Not Active"}, {"measurement": "kcat/Km", "setting": "[10]", "value": 0.025, "unit": "×10⁶ /M/s"}, {"measurement": "kcat/Km", "setting": "[11]", "value": 0.21, "unit": "×10⁶ /M/s"}, {"measurement": "kcat/Km", "setting": "[12]", "value": 800, "unit": "M⁻¹ s⁻¹"}]}
